Measurements as given in the supplement of paper PMC10567573.

B1: RAD51 (parent)
chain: APKKELINIKGISEAKADKILAEA
B2: TMEM192 (parent)
chain: LWILHLLLECYIQYHHSKIRNRGY

Variants of: B1
Test: protein stability index of a GFP-peptide fusion (GPS, HEK-293T) (PSI 1-6); higher = more stable
Conditions: c terminus: a fixed tail appended
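Note: lentivirally expressed fusions sorted by FACS into six bins by GFP to DsRed ratio, PSI derived from sequencing read proportions per bin multiplied by bin number.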

Variant | protein stability index
L21F | 4.13
L21I | 5.32
E5H | 4.48
E5N | 4.22
E5S | 4.34
E5A | 4.12
E5W | 3.01
K19N | 4.84
K19T | 4.83
K19L | 3.89
K19R | 4.26
P2I | 4.01
P2C | 4.5
P2E | 4.7
K16C | 4.63
K16H | 4.78
K16Y | 3.93
K16V | 3.98
K16P | 4.84
K10G | 5.08
K10L | 4.29
K10Y | 3.8
K10T | 4.68
K10C | 4.19

Variant | protein stability index
K10P | 4.34
K10I | 3.64
K10V | 4.38
I7A | 5.13
I7T | 5.04
A17I | 4.15
A17M | 4.43
A17H | 4.49
A17C | 5.04
A17D | 5.51
A17L | 4.53
A17K | 4.83
A17T | 4.42
I9V | 5.1
I9N | 5.26
I9E | 5.68
E14G | 4.8
E14L | 3.83
E14S | 4.23
E14A | 4.4
E14W | 3.89
E14D | 4.99
E14M | 4.23
E14F | 3.48

Variant | protein stability index
A1N | 4.71
A1M | 4.06
A1T | 4.41
A1K | 4.84
A1I | 4.39
A22R | 4.84
A22F | 3.98
A22W | 3.58
A22I | 4.25
N8K | 4.13
N8L | 3.5
N8P | 4.88
E23F | 3.46
E23S | 3.79
E23Y | 3.37
E23Q | 4.26
S13K | 4.7
S13Y | 3.71
S13C | 4.43
S13P | 4.88
S13A | 4.97
S13F | 3.73
S13V | 4.02
K3E | 4.94

Variant | protein stability index
K3P | 4.83
K3H | 4.87
K3I | 4.77
K3V | 5.06
K3N | 4.58
K3M | 3.95
K4D | 5.31
K4Y | 4.52
K4A | 4.44
K4F | 4.5
I12C | 4.96
I12N | 5.06
I12R | 5.14
I12D | 5.91
I12V | 4.7
I12F | 4.33
I12P | 5.15
I12A | 5.28
I12H | 5.44
A15M | 4.41
A15H | 4.18
A15K | 4.95
A15V | 4.95
A24P | 4.91

Variant | protein stability index
A24D | 4.83
A24G | 4.9
G11V | 4.37
G11A | 5.12
D18N | 4.04
D18K | 4.78
D18S | 3.53
I20R | 4.75
I20K | 5.46
I20E | 5.33
I20A | 5.03
I20H | 5.11
I20C | 5.14
I20G | 5.1
I20Y | 4.61
L6F | 4.4
L6T | 5.06
L6K | 5
L6S | 4.79
L6W | 4.12
L6N | 4.94

Variants of: B2
Test: as above
Conditions: c terminus: a fixed tail appended

Variant | protein stability index
L4A | 4.26
L4T | 1.17
L4C | 2.96
L4M | 2.39
L4S | 3.7
L4I | 2.29
L4K | 2.51
L4R | 3.42
L4F | 1.69
L4P | 2.85
L4V | 1.83
L4H | 3.85
L4Y | 2.68
I3V | 2.65
I3E | 1.68
I3M | 1.35
I3L | 3.4
I3R | 1.74
I3N | 2.2
I3A | 1.76
I3W | 1.61
I3Y | 1.62
I3H | 2.09
I3Q | 1.37
I3T | 2.34

Variant | protein stability index
I3D | 1.71
I3C | 2.62
I3K | 2.31
I3G | 1.37
I3S | 2.32
H5K | 2.35
H5P | 3.17
H5L | 2.28
H5E | 2.26
H5Q | 1.72
H5D | 1.05
H5T | 2.61
H5C | 1.66
H5I | 2.77
H5G | 1.48
H5V | 2.22
L1G | 3.04
L1T | 3.75
L1Y | 2.72
L1E | 3.02
L1D | 3
L1V | 2.17
L1M | 1.48
L1C | 2.89
L1K | 2.06
